# Reference: patent US20250186602A1, “HUMANIZED ANTIBODY THAT BONDS TO EVA1 PROTEIN OR FUNCTIONAL FRAGMENT THEREOF, ANTIBODY-DRUG CONJUGATE AND CHIMERIC ANTIGEN RECEPTOR” (CURED INC., priority 2022, published 2025)
# “Also recorded” adds a separate entry of the source.
# Experiments:
# [1] = tested on: Eval-positive HuCCT-1; experiment: Amplification of Eval-CAR-T after antigen stimulation (co-culture with irradiated Eval-positive HuCCT-1); format: cell-based, human
# Description: Eval-positive HuCCT-1, was irradiated with a radioactive ray of 100 Gy, and was co-cultured with the CAR-Ts in 1:1, and the amplification efficiencies of these were analyzed. In FIG. 3J, amplification efficiencies in time series are shown. In FIG. 3K, the amplification factors at Day 4 were plotted.
# In the same manner as described above, Eval-positive HuCCT-1, was irradiated with a radioactive ray of 100 Gy, and was co-cultured with the CAR-T-cells in 1:1. Then, 50 U/ml of IL-2 was added once every three days, at Day 1, 4, and 7, followed by culturing. In FIG. 3L, the respective amplification efficiencies in time series are shown. In FIG. 3M, the amplification factors at Day 18 were plotted.
# In the same manner as described above, Eval-positive HuCCT-1, was irradiated with a radioactive ray of 100 Gy, and was co-cultured with hEva1 CAR-T-cells in 1:1.
# In the same manner as described above, Eval-positive HuCCT-1, was irradiated with a radioactive ray of 100 Gy, and was co-cultured with hEva1-CAR-Ts in 1:1.
# [2] = tested on: various tumor cell lines (Eval positive and Eval negative); experiment: Cytokine production of Eval-CAR-T co-cultured with tumor cell lines (intracellular staining, flow cytometry); format: cell-based, human; conditions: co-culture 1:1, 6 hours, Day 17 cells
# Description: Next, the cytokine production capacity of the Eval-CAR-T using the anti-human Eval mouse antibody sequence was analyzed. Specifically, CAR-T prepared as described above was cultured until day 17, and the cells were co-cultured with various main cell lines in 1:1. After co-culturing for 6 hours, immobilization and intracellular staining (BD cytofix/cytoperm buffer) were conducted to stain the cells with IFN-gamma (IFN-γ).
# The experiment was conducted by using the above-described Eval-CAR-Ts at Day 17. Specifically, the Eval-CAR-Ts were co-cultured with tumor cell lines in 1:1, and the cells were immobilized and stained in the same methods as described above after 6 hours, and intracellular IFN-gamma and IL-2 were evaluated with flow cytometry.
# (§1) The experiment was conducted by using hEva1-CAR-Ts at Day 17. Specifically, hEva1-CAR-Ts were co-cultured with tumor cell lines in 1:1, and the cells were immobilized and stained in the same manner as described above after 6 hours, and intracellular IFN-gamma and IL-2 were evaluated with flow cytometry. These figures show the percentages at which the cytokine was positive among the CD8 positive cells.
# as §1, with “using the above-described” for “using”, “Specifically, the” for “Specifically,”, “after […]” for “after 6”, “which each” for “which the”
# [3] = tested on: Human glioma stem cells (hGIC); experiment: Cytotoxicity assay of B2E5-ADC against glioma (MTT); format: cell-based
# Description: Human glioma stem cells (hGIC) were inoculated in a 96-well plate in an amount of 1000 cells per well. […] Then, 5 μl of MTT (5 mg/ml, Wako Pure Chemical) was added to each well, followed by culturing for 2 hours in a CO2 incubator at 37° C. After the culture liquid was discarded, 90 μl of DMSO was added, and after the cells were dissolved, the absorbance (570 nm) was measured by using a benchmark (Bio-Rad).
# Note that as a positive control (100%), a measured value in a well in the absence of the antibody was used. In addition, as a negative control (0%), a measured value obtained by adding 5 μl of 1% TritonX100 to a well in the absence of the antibody was used.
# [4] = tested on: hEva1-mouse Fc; experiment: Surface plasmon resonance kinetics analysis (BiaCore T200, single-cycle); format: binding, human; conditions: SPR, antibody captured 5 nM, analyte hEva1-mouse Fc 1-250 nM, HBS-EP+ pH 7.4
# Description: The dissociation constants and association constants of the humanized antibodies and the like were analyzed by using surface plasmon resonance (SPR, product name: BiaCore T200 (manufactured by GE healthcare)).
# Specifically, first, human IgG capture antibodies were immobilized on a CM5 chip by an amine coupling method. This immobilization was conducted in both reference cells and active cells. Then, the kinetics analysis on the anti-Eval antibody and hEva1 was conducted by a single-cycle method using the following measurement conditions.
# • Sample compartment temperature: 10° C. • Running buffer: HBS-EP+buffer, pH 7.4 • Capturing molecule: Human IgG antibody, reference & active cells • Ligand: Various antibodies 5 nM, active cells only • Analyte: hEva1-mouse Fc1, 5, 25, 125, 250 nM, reference & active cells • Regeneration buffer: 3M MgCl2, reference & active cells • 3 cycles of Blanks (Analyte zero concentration)
# hEva1-mouse Fc, sequence (O60487 27-154 limits assumed): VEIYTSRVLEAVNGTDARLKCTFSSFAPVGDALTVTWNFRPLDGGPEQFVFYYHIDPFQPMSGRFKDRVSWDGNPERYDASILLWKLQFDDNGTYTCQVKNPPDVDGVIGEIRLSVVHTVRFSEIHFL
Molecule,"amplification efficiency after Eval stimulation ([1]; 50 U/ml IL-2 at Day 1, 4, 7, co-culture 1:1 with HuCCT-1 irradiated 100 Gy)","amplification efficiency after Eval stimulation ([1]; absence of IL-2, co-culture 1:1 with HuCCT-1 irradiated 100 Gy)",cytokine production (intracellular IFN-gamma and IL-2) [2],cytotoxic activity against hGIC [3],ka [4],kd [4]
"232aa: mouse antibody-derived Eval-CAR-T with spacer length 232aa (SEQ ID NO: 63) (protein, Hinge region:232aa) EPKSSDKTHTSPPCPAPEFLGGPSVFLFPPKPKDTLMISRTPEVTCVVVDVSQEDPEVQFNWYVDGVEVHNAKTKPREEQFNSTYRVVSVLTVLHQDWLNGKEYKCKVSNKGLPSSIEKTISKAKGQPREPQVYTLPPSQEEMTKNQVSLTCLVKGFYPSDIAVEWESNGQPENNYKTTPPVLDSDGSFFLYSRLTVDKSRWQEGNVFSCSVMHEALHNHYTQKSLSLSLGK",cell amplifications tended to be better,higher cell amplifications; also recorded: most excellent in cell growth and cytokine production,most excellent cytokine production capacity,,,
"H2-L2: humanized B2E5-48 IgG1, VH H2 (SEQ ID NO: 13), VL L2 (SEQ ID NO: 7) (antibody, V domains shown, Variable Region of Heavy Chain 2 (Humanized B2E5-48); Variable Region of Light Chain 2 (Humanized B2E5-48)) VH: QVQLVQSGAEVKKPGASVKVSCKASGYTFTNYWMHWVRQAPGQGLEWMGEINPTNGGTDYNEKFQGRVTMTVDKSTSTAYMELSSLRSEDTAVYYCTIYTTALDYWGQGTLVTVSS VL: EIVLTQSPATLSLSPGERATLSCRASSSVGYMYWYQQKPGQAPRPLIYVTSNRATGIPARFSGSGSGTDYTLTISSLEPEDFAVYYCQQWSSNPPTFGQGTKLEIK",,,,no cytotoxic activity,19720 M⁻¹ s⁻¹,0.009201 s⁻¹
